Legend:
[1] = Heat stability and stable pH of PenOX2 (residual activity); conditions: treated at each temperature for 10 minutes; residual activity at 37° C., pH 7.5; FIG. 9
Experimental: 600 μL of an arbitrary buffer, 400 μL of a solution of 3.99 U/mL peroxidase, 1.8 mM 4-aminoantipyrine, and 2 mM TOOS dissolved in deionized water, and 150 μL of deionized water were incubated at an arbitrary temperature for 10 minutes. Then, 50 μL of the enzyme liquid preserved on ice and 400 μL of a solution of 2 mM pentosidine dissolved in a 100 mM potassium phosphate buffer (pH 8.0) incubated at an arbitrary temperature for 10 minutes were added thereto, and the mixture was stirred and reacted at an arbitrary temperature for 3 minutes. Time-dependent change in A555 during the reaction was measured in a spectrophotometer (U-3900, manufactured by Hitachi High-Tech Science Corp.). Time elapsed after the start of measurement—amount of change in A555 from 20 seconds to 60 seconds was regarded as an activity value.
The enzyme liquid treated at each temperature for 10 minutes was evaluated for residual activity by performing the activity measurement described above at a temperature of 37° C. using a 100 mM (final concentration) potassium phosphate buffer (final pH at the time of activity measurement: 7.5).

[2] = Method for measuring enzymatic activity (pentosidine oxidase activity, A555), Examples 9 and 10; assay type: biochemical
Experimental: The amount of the enzyme that produced 1 μmol of hydrogen peroxide per minute at 37° C. was defined as 1 unit (U). The activity was calculated according to the following expression.
Each buffer was prepared as a 50 mM (final concentration) citric acid-100 mM potassium phosphate buffer (pH 4.0 to 7.5), a 100 mM (final concentration) potassium phosphate buffer (pH 6.5 to 8.0), and a 100 mM (final concentration) glycine buffer (pH 8.0 to 11.0). Enzyme reaction was performed at each pH at a temperature of 37° C. using these buffers. […] It was therefore concluded that the optimum pH of PenOX2 is pH 6.5 to 8.0 and is most preferably pH 7.5.
The activity of PenOX2 was measured at varying temperatures using a 50 mM (final concentration) potassium phosphate buffer (pH 7.5). […] It was thus concluded that the range of the optimum temperature of PenOX2 is from 37° C. to 50° C.
As mentioned above, both PenOX1 and PenOX2 had pentosidine oxidase activity. When the percent match between their amino acid sequences was examined using the BLAST program, the amino acid sequence homology therebetween was 38.2%. […] The amino acid sequence homology to PenOX1 and PenOX2 and pentosidine oxidase activity of each enzyme were as follows.

[3] = Pentosidine quantification test (DA-67/peroxidase, A658); assay type: biochemical; conditions: 37° C., pH 7.0
Experimental: The following reagents were prepared, and pentosidine was measured using Bio Majesty JCA-BM1650 (manufactured by JEOL Ltd.).
0.2 μM, 0.4 μM, 0.6 μM, 1.0 μM, 2.0 μM or 4.0 μM pentosidine solution (prepared using the same pentosidine as in Example 2)
120 mM potassium phosphate buffer (pH 7.0)
0.2 mM DA-67 (10-(carboxymethylaminocarbonyl)-3,7-bis(dimethylamino)phenothiazine, sodium salt) (manufactured by FUJIFILM Wako Pure Chemical Corp.)
25 μL of each sample was added to 50 μL of the first reagent, and the mixture was incubated at 37° C. for 5 minutes. Then, 25 μL of the second reagent was added thereto, and pentosidine oxidation reaction mediated by PenOX2 and reaction for the detection of hydrogen peroxide produced through the reaction were allowed to proceed at 37° C. for 5 minutes.
In the reaction for the detection of hydrogen peroxide, DA-67 was oxidized, with concomitant consumption of […], into methylene blue which in turn developed color while absorbance (A658) was elevated. […] Elevation in A658 was able to be confirmed immediately after addition of the second reagent containing PenOX2.
Subsequently, the amount of elevation in A658 (ΔA) caused by the oxidation of pentosidine was calculated according to the following expression.
ΔA=(Absorbance 5 minutes after addition of the second reagent)−(Absorbance immediately before addition of the second reagent×0.75)

B1: PenOX2: protein having the amino acid sequence of SEQ ID NO: 4, pentosidine oxidase from a filamentous fungus of the genus Sarocladium (protein, listed as Sarocladium sp.)
chain: MFTPKAWIPLLALSREVFSNPTSASHSISFHGLLGVSSESVHNIHLTYGDAFPHGDFRVVFGDCGMTSEDELHHEVASLSTKMESAPDRLVWLVPKDVRENGCLHAFSEGVLLGRSEPVAFTEPLRKRESLSEIGDSDGLWFSGIRYLQSSNLTSVKAAEAKEKKIGIVGGGISGLMTSLLLTSVGMTNWHIIEATERVGGRIRTKYMNGTSPDDYQYQEMGPMRFPVEVKYNDTNETLPIQDHKMVFQLAEVLNEMNGNDTDLAVKFIPWTQNNPNTPANSRGYRLPDGRIPTAAQIAQNPSILPAAANASDPQDAELGKESLERLSDLTPERMRNISANIFKAHRDAIDRGLFHWSEAAYLRYQLGLDDDTVDFVAASDNYPMFPDWWHAVYFAATKWLTIDKGLDSLSRAFVPHVKDKITYGRKIEAMQWNESTSKISLSWRESPLAAAKSDEYDYAVVAVPFSKVRLWKRPAYSNLLTRAIGKLNYEQACKVALLYETRFWEHQEIPIFGGCGSVDIPGIGGVCYPSYEINSTRPGVILSSYITGTEARSVVALSEEDHVAMVQRAMVEVHGPMADEQWTGIYDRLCWEVDENAAGGWASPTVGQQELFIPAYHKTELNTIFIGEHTSITHGWIFSALESSVRGTTQLLLDLGLVDEAKQIVETWMARWITV
- heat stability (stable up to) [1]: around 30 °C
- temperature at which the highest activity was exhibited ([2]; 50 mM potassium phosphate buffer pH 7.5, FIG. 8): around 50 °C
- Km ([2]; 37° C., pH 7.5, Lineweaver-Burk plot, FIG. 11, read-out: Km value for pentosidine (free form)): 70 µM
- pH of highest activity ([2]; 37° C., FIG. 7): 7.5 pH
- pentosidine oxidizing activity [3]: exhibits pentosidine oxidizing activity

Reference: US20220396822A1, “Method for Measuring Pentosidine and Measurement Kit” (Kikkoman Corporation, priority 2019, published 2022)
